# From US20150299301A1 (published 2015)
# B1: MSA24 (VHH)
# VHH: QVQLQESGGGLVQPGNSLRLSCAASGFTFRNFGMSWVRQAPGKEPEWVSSISGSGSNTIYADSVKDRFTISRDNAKSTLYLQMNSLKPEDTAVYYCTIGGSLSRSSQGTQVTVSS
# Target: T1, mouse serum albumin (mouse, UniProt P07724 25-608)
# T1 construct: also called MSA; mouse albumin
# Assay: phage on blotted plasma (1/10)
# Protocol: A SDS-PAGE was run for plasma (1/10 dilution) from different species (baboon, pig, hamster, human, rat. mouse and rabbit) and blotted on a nitrocellulose membrane. Phages were prepared for clones MSA 21. […] Phages were allowed to bind to the nitrocellulose blotted serum albumins and unbound phages were washed away. Binding was detected with a anti-M13 polyclonal antibody coupled to HRP. DAP was used as a substrate for detection.
# T1 sequence (P07724 25-608 limits assumed): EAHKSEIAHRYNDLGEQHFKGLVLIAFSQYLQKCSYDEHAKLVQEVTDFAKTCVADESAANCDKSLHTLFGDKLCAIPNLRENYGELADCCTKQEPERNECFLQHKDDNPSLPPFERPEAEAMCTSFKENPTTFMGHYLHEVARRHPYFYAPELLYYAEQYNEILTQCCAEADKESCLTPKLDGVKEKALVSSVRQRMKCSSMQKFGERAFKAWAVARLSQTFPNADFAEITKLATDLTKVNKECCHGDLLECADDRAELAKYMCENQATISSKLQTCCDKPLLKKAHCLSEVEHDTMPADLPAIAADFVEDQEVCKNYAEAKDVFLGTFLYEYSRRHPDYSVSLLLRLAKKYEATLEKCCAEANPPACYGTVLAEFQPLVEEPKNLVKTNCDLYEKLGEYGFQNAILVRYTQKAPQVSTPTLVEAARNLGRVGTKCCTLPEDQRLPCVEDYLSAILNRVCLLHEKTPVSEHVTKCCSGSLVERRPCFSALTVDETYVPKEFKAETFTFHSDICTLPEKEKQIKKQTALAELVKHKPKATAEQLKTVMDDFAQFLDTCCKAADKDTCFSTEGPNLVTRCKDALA
binder,measurement,value
B1,binding result,binds
